Reference: US20090053807A1 (Novo Nordisk A/S, priority 1998, published 2009)

Assays:
[1] = test system: MCF-7 cells; assay: MCF-7 cell proliferation assay, agonist format; format: cell-based, human; conditions: MCF-7 and MiaPaCa cell proliferation (Tables 27-28)
[2] = biological target: insulin receptor construct transfected into 32D cells (Homo sapiens, UniProt P06213); assay: IR autophosphorylation assay in IR transfected 32D cells (ELISA); conditions: MBP fusion peptides, FIG. 30

| stimulation of autophosphorylation of IR [2] | Molecule | IGF-1R agonist activity [1] |
| --- | --- | --- |
|  | RP30-IGF-12-D112: dimer peptide (Site 1-Site 1) (peptide) ADYKDSFYSCLESLVNGGAERSDGQWEGCRGGSGGSGGSGGSCWARPCGDAANFYDWFVQQASKKAAAGAPVPYPDPLEPRPG | IGF-1R agonist activity |
|  | D112-12-RP30-IGF: dimer peptide (Site 1-Site 1) (peptide) ADYKDCWARPCGDAANFYDWFVQQASKKGGSGGSGGSGGSSFYSCLESLVNGGAERSDGQWEGCRAAAGAPVPYPDPLEPRPG | IGF-1R agonist activity |
| active | H2C-3aa-H2C: MBP fusion, H2C dimer peptide (Site 1-Site 1) with 3 amino acid linker (protein, left off: large carriers; small tags and cut ends) NNNNLGIEGRISEFIEGRAQPAMAFHENFYDWFVRQVSGGSFHENFYDWFVRQVSAAAGAPVPYPDPLEPRAA |  |
| active | H2C-9aa-H2C: MBP fusion, H2C dimer peptide with 9 amino acid linker (protein, left off: large carriers; small tags and cut ends) NNNNLGIEGRISEFIEGRAQPAMAFHENFYDWFVRQVSGGSGGSGGSFHENFYDWFVRQVSAAAGAPVPYPDPLEPRAA |  |
